Experimental data reported in the PETadex activity labels (doi:10.1042/bj20051645).

B1: unnamed (protein)
chain: MMNFNNVFRWHLPFLFLVLLTFRAAAADTLLILGDSLSAGYRMSASAAWPALLNDKWQSKTSVVNASISGDTSQQGLARLPALLKQHQPRWVLVELGGNDGLRGFQPQQTEQTLRQILQDVKAANAEPLLMQIRLPANYGRRYNEAFSAIYPKLAKEFDVPLLPFFMEEVYLKPQWMQDAGIHPNRDAQPFIADWMAKQLQPLVNHDS
B2: unnamed (protein)
chain: MMNFNNVFRWHLPFLFLVLLTFRAAAADTLLILGDSLSAGYRMSASAAWPALLNDKWQSKTSVVNASISADTSQQGLARLPALLKQHQPRWVLVELGGNDGLRGFQPQQTEQTLRQILQDVKAANAEPLLMQIRLPANYGRRYNEAFSAIYPKLAKEFDVPLLPFFMEEVYLKPQWMQDDGIHPNRDAQPFIADWMAKQLQPLVNHDS
B3: unnamed (protein)
chain: MMNFNNVFRWHLPFLFLVLLTFRAAAADTLLILGDSLSAGYRMSASAAWPALLNDKWQSKTSVVNASISGDTSQQGLARLPALLKQHQPRWVLVELGGNDGLRGFQPQQTEQTLRQILQDVKAANAEPLLMQIRLPANYGRRYNEAFSAIYPKLAKEFDVPLLPFFMEEVYLKPQWMQDDGIHPNRDAQPFIADWMAKQLQPLVNHDS
B4: unnamed (protein)
chain: MMNFNNVFRWHLPFLFLVLLTFRAAAADTLLILGDSLSAGYRMSASAAWPALLNDKWQSKTSVVNASISGDTSQQGLARLPALLKQHQPRWVLVELGGADGLRGFQPQQTEQTLRQILQDVKAANAEPLLMQIRLPANYGRRYNEAFSAIYPKLAKEFDVPLLPFFMEEVYLKPQWMQDDGIHPNRDAQPFIADWMAKQLQPLVNHDS
B5: unnamed (protein)
chain: MMNFNNVFRWHLPFLFLVLLTFRAAAADTLLILGDALSAGYRMSASAAWPALLNDKWQSKTSVVNASISGDTSQQGLARLPALLKQHQPRWVLVELGGNDGLRGFQPQQTEQTLRQILQDVKAANAEPLLMQIRLPANYGRRYNEAFSAIYPKLAKEFDVPLLPFFMEEVYLKPQWMQDDGIHPNRDAQPFIADWMAKQLQPLVNHDS
B6: unnamed (protein)
chain: MMNFNNVFRWHLPFLFLVLLTFRAAAADTLLILGDSLSAGYRMSASAAWPALLNDKWQSKTSVVNASISGDTSQQGLARLPALLKQHQPRWVLVELGGNDGLRGFQPQQTEQTLRQILQDVKAANAEPLLMQIRLPANYGRRYNEAFSAIYPKLAKEFDVPLLPFFMEEVYLKPQWMQDDGIAPNRDAQPFIADWMAKQLQPLVNHDS

Substrate: p-NP-C4
Details: pH 7; 37 °C

Question: How did the Km turn out when B1 was run?
Answer: 1880 µM

Question: What about the kcat of the same protein?
Answer: 5.98 s⁻¹

Question: And the kcat/Km?
Answer: 3180 M⁻¹ s⁻¹

Question: With B2 as the protein, how does the Km read?
Answer: 1100 µM

Question: What about the kcat of the same protein?
Answer: 3.16 s⁻¹

Question: And the kcat/Km?
Answer: 2870 M⁻¹ s⁻¹

Question: What does the source list for B3?
Answer: Km: 870 µM; kcat: 15.3 s⁻¹; kcat/Km: 17600 M⁻¹ s⁻¹

Question: B4 was tested. Which Km did it give?
Answer: 1660 µM

Question: And the kcat?
Answer: 12 s⁻¹

Question: What about the kcat/Km of the same protein?
Answer: 7220 M⁻¹ s⁻¹

Question: B5 was tested. Which Km did it give?
Answer: 1550 µM

Question: What about the kcat of the same protein?
Answer: 0.16 s⁻¹

Question: And the kcat/Km?
Answer: 103 M⁻¹ s⁻¹

Question: With B6 as the protein, how does the Km read?
Answer: 610 µM

Question: And the kcat?
Answer: 0.0093 s⁻¹

Question: What about the kcat/Km of the same protein?
Answer: 15.2 M⁻¹ s⁻¹
